{"source": "patent US20050154189A1", "about": "(MAXYGEN, published 2005)", "binders": {"B1": {"name": "Round 2 CTLA4BP-5x2-11d (ligand)", "chain": "VIHVTKEVKEVATLSCGHNVSVEELAQTRIHWQKEKKMVLTMMSGDMNIWPEYKNRTIFDITNNLSIVILALRPSDEGTYECVVLKYEKDAFKREHLAEVMLSVKADFPTPSITDFEIPPSNIRRIICSTSGGFPEPHLFWLENGEELNAINTTVSQDPETELYTVSSKLDFNMTTDRSFVCLIKYGHLRVNQTFNWNTPKQEHFPDNLLPSWAITLISANGIFVICCLTYCFAPRCRERKSNETLRRESVRPV"}, "B2": {"name": "Round 2 CTLA4 A-C9-9 (ligand)", "chain": "SGITPKSVTKRVKETVMLSCDYSTSTEELTSLRIYWQKDSKMVLAILPGKVQVWPEYKNRTFPDIINNLSLMILALRLSDRGTYTCVVQKNENGSFRREHLTSVTLSIRADFPVPSITDIGHPAPNVKRIRCSASGGFPEPRLAWMEDGEELNAVNTTVDQDLDTELYSVGSELDFNVTNNHSIVCLIKYGELSVSQIFPWSKPKQEPPIDQLPFWVIIPVSGALVLTAVVLYCLARRHVARWKRTRRNEETVGTERLSPIYLGSAQSSG"}, "B3": {"name": "Round 2 CTLA4BP-5x2-10c (ligand)", "chain": "VIHVTKEVKEVATLSCGHNVSVEELAQTRIHWQKEKKMVLTMMSGDMNIWPEYKNRTIFDITNNLSIVILALRPSDEGTYECVVLKYEKDAFKREHLAEVMLSVKADFPTPSITDFEIPPSNIRRIICSTSGGFPEPHLSWLENGEELNAINTTVSQDPETELYTVSSKLDFNMTANHSFVCLIKYGHLRVNQTFNWNTPKQEHFPDNLLPSWAITLISVNGIFVICCLTYCFAPRCRERRNETLRRESVRPV"}, "B4": {"name": "Round 2 CTLA4 A-H4-5* (ligand)", "chain": "ITPKSVTKRVKETVMLSCDYSTSTEELTSLRIYWQKDSKMVLAILPGKVQVWPEYKNRTITDMNDNPRIVILALRLSDKGTYTCVVQKNENGSFRREHLTSVTLSIRADFPVPSITDIGHPAPNVKRIRCSASGGFPEPRLYWLENGEELNATNTTVSQDPGTELYMISSELDFNVTNNHSIVCLIKYGELSVSQIFPWSKPKQEPPIDQLPFWVIIPVSGALVLTAVVLYCLACRHVARWKRTRRNEETVGTERLSPIYLGSAQSSG"}, "B5": {"name": "Round 1 CTLA4BP-7 (ligand)", "chain": "VIHVTNEVKEVATLSCGHNVSGEELAQTRIYWQKEKKMVLTMMYGDMNIWPEYKNRTIFDITNNLSIVILALRPSDEGTYECVVLKYEKDAFKREHLAEVMLSVKADFPTPSITDFEIPPSNIRRIICLTSGGFPEPRLAWMKDGEELNAISTTVSQDPGTELYAVSSKLDFNMTTNHSFMCLIKYGHLRVNQTFSWNTPKQEHFPDNLLPSWAITLISVNGIFVICCLTYCFAPRCRERRRNERLRRESVRPV", "notes": "also called R1-7; R1 CTLA-4BP-7"}, "B6": {"name": "Round 1 CD28BP-126 (ligand)", "chain": "ITPKSVTKRVKETVMLSCDYSTSTEELTSLRIYWQKDSKMVLAILPGKVQVWPEYKNRTITDMNDNPRIVILALRLSDSGTYTCVIQKPDLKGAYKLEHLTSVRLMIRADFPVPTINDLGNPSPNIRRLICSTSGGFPRPHLYWLENGEELNATNTTVSQDPGTELYMISSELDFNVTNNHSIVCLIKYGELSVSQIFPWSKPKQEPPIDQLPFWVIIPVSGALVLTAVVLYCLACRHVARWKRTRRNEETVGTERLSPIYLGSAQSSG", "notes": "also called R1clone 126; Clone 126"}, "B7": {"name": "Round 2 CD28H11-3 (ligand)", "chain": "B6 chain with S21N, D90V, T101A, V158L, G163E, E165K, V229A"}, "B8": {"name": "Round 2 CD28B2-8 (ligand)", "chain": "B6 chain with S21N, S79K, D90V, T101A"}, "B9": {"name": "Round 2 CD28E10-6 (ligand)", "chain": "B6 chain with S21N, D90V, T101A, V158L, G163E"}, "B10": {"name": "Round 2 CD28F3-6 (ligand)", "chain": "B6 chain with V158L, G163E, E165K"}, "B11": {"name": "Round 2 CD28BP-4 (ligand)", "chain": "B6 chain with S21N, D90V, T101A, Y143C"}, "B12": {"name": "Round 2 CD28C6-1 (ligand)", "chain": "B6 chain with D90V, T101A, V239G"}, "B13": {"name": "Round 2 CD28E5-2 (ligand)", "chain": "B6 chain with S21N, T101A, V158L, G163E, E165K, H181R"}, "B14": {"name": "Round 2 CD28A6-1 (ligand)", "chain": "B6 chain with S21N, D90V, T101A, G163E, E165K, W215R, V229I"}, "B15": {"name": "Round 2 CD28BP-13 (ligand)", "chain": "ITPKSVTKRVKETVMLSCDYSTSTEELTSLRIYWQKDSKMVLAILPGKVQVWPEYKNRTITDMNDNPRIVILALRLSDSGTYTCVIQKPVLKGAYKLEHLASVRLMIRADFPVPTINDLGNPSPNIRRLICSTSGGFPEPRLAWMEDGEELNAVNTTVDQDLDTELYSVSSELDFNVTNNHSIVCLIKYGELSVSQIFPWSKPKQEPPIDQLPFWVIIPVSGALVLTAVVLYCLACRHVARWKRTRRNEETVGTERLSPIYLGSAQSSG"}, "B16": {"name": "Round 2 CD28A6-9 (ligand)", "chain": "B6 chain with S21N, D90V, T101A, W215L"}, "B17": {"name": "Round 2 CD28G2-8 (ligand)", "chain": "B6 chain with S21N, D90V, T101A, T115S"}, "B18": {"name": "Round 2 CD28BP-5 (ligand)", "chain": "B6 chain with S79K, I86V, D90V"}, "B19": {"name": "Round 2 CD28C8-6 (ligand)", "chain": "B6 chain with S21N, D90V, T101A, D174G"}, "B20": {"name": "Round 2 CD28D8-9 (ligand)", "chain": "B6 chain with D90V"}, "B21": {"name": "Round 2 CD28A4-5* (ligand)", "chain": "B6 chain with S21N, D90V, V158L, G163E, E165K"}, "B22": {"name": "Round 2 CD28F8-4 (ligand)", "chain": "B6 chain with D90V, T101A, V158L, G163E, E165K"}, "B23": {"name": "Round 2 CD28BP-2 (ligand)", "chain": "B6 chain with D90V, T101A, V158L, G163E, E165K, C233R, L234P"}, "B24": {"name": "Round 2 CD28E2-4 (ligand)", "chain": "B6 chain with S79K, D90V, T101A"}, "B25": {"name": "Round 2 CD28A8-4 (ligand)", "chain": "B6 chain with S21N, D90V"}, "B26": {"name": "Round 2 CD28BP-16 (ligand)", "chain": "B6 chain with S21N, D90V, T227A"}, "B27": {"name": "Round 2 CD28C11-5 (ligand)", "chain": "B6 chain with S21N, D90V, V184A"}, "B28": {"name": "Round 2 CD28F7-2 (ligand)", "chain": "B15 chain"}, "B29": {"name": "Round 2 CD28D2-9 (ligand)", "chain": "B6 chain with S21N, D90V, V158L, G163E"}, "B30": {"name": "Round 2 CD28E9-6 (ligand)", "chain": "B6 chain with S21N, S79K, T101A"}, "B31": {"name": "Round 1 CD28BP-71 (ligand)", "chain": "ITPKSVTKRVKETVMLSCDYNTSTEELTSLRIYWQKDSKMVLAILPGKVQVWPEYKNRTITDMNDNPRIVILALRLSDSGTYTCVIQKPVLKGAYKLEHLASVRLMIRADFPVPTINDLGNPSPNIRRLICSTSGGFPRPHLYWLENGEELNATNTTLSQDPETKLYMISSELDFNMTSNHSFLCLVKYGDLTVSQTFYWQESKPTPSANQHLTWTIIIPVSAFGISVIIAVILTCLTCRNAAIRRQRRENEVEMQSCSQSP", "notes": "also called R1clone71; Clone 71"}, "B32": {"name": "Round 2 CD28B6-3 (ligand)", "chain": "B31 chain with V90D, A101T, E254K"}, "B33": {"name": "Round 2 CD28B4-3 (ligand)", "chain": "B31 chain with A101T"}}, "key": {"Soluble CTLA-4-Ig": {"target": "T1, Soluble CTLA-4-Ig (human, UniProt P16410 36-161, FITC-conjugated in the two-colour FACS assays; unlabelled and detected with FITC goat anti-human IgG in the concentration-dependent assay)", "T1 construct": "extracellular domain; Bought from R&D Systems; also called sCTLA-4-Ig; CTLA-4-Ig Fc; not shown: Fc portion of human IgG1", "T1 sequence (P16410 36-161)": "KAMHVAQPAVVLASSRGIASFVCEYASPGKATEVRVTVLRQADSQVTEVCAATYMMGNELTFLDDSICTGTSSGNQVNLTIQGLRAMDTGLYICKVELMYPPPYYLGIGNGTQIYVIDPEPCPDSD", "test": "two-colour FACS profile on transfected cells; score of preference for CTLA-4-Ig over CD28-Ig vs WT hB7-1"}, "Soluble CD28-Ig": {"target": "T2, Soluble CD28-Ig (human, UniProt P10747 19-152, biotin-conjugated (NHS-biotin) in the labelled-ligand FACS assays)", "T2 construct": "extracellular domain; Bought from R&D Systems; also called sCD28-Ig; CD28-Ig Fc; not shown: Fc portion of human IgG1", "test": "two-colour FACS profile on transfected cells; score of preference for CD28-Ig over CTLA-4-Ig vs WT hB7-1"}}, "note": "Residue numbers refer to the chain shown, from its start.", "data": [{"binder": "B1", "values": [{"measurement": "Binding Score", "setting": "Soluble CTLA-4-Ig", "value": 2}]}, {"binder": "B2", "values": [{"measurement": "Binding Score", "setting": "Soluble CTLA-4-Ig", "value": 0}]}, {"binder": "B3", "values": [{"measurement": "Binding Score", "setting": "Soluble CTLA-4-Ig", "value": 2}]}, {"binder": "B4", "values": [{"measurement": "Binding Score", "setting": "Soluble CTLA-4-Ig", "value": 1}]}, {"binder": "B5", "values": [{"measurement": "Binding Score", "setting": "Soluble CTLA-4-Ig", "value": 1}]}, {"binder": "B6", "values": [{"measurement": "Binding Score", "setting": "Soluble CD28-Ig", "value": 1}]}, {"binder": "B7", "values": [{"measurement": "Binding Score", "setting": "Soluble CD28-Ig", "value": 1}]}, {"binder": "B8", "values": [{"measurement": "Binding Score", "setting": "Soluble CD28-Ig", "value": 1}]}, {"binder": "B9", "values": [{"measurement": "Binding Score", "setting": "Soluble CD28-Ig", "value": 1}]}, {"binder": "B10", "values": [{"measurement": "Binding Score", "setting": "Soluble CD28-Ig", "value": 0}]}, {"binder": "B11", "values": [{"measurement": "Binding Score", "setting": "Soluble CD28-Ig", "value": 2}]}, {"binder": "B12", "values": [{"measurement": "Binding Score", "setting": "Soluble CD28-Ig", "value": 1}]}, {"binder": "B13", "values": [{"measurement": "Binding Score", "setting": "Soluble CD28-Ig", "value": 0}]}, {"binder": "B14", "values": [{"measurement": "Binding Score", "setting": "Soluble CD28-Ig", "value": 1}]}, {"binder": "B15", "values": [{"measurement": "Binding Score", "setting": "Soluble CD28-Ig", "value": 2}]}, {"binder": "B16", "values": [{"measurement": "Binding Score", "setting": "Soluble CD28-Ig", "value": 1}]}, {"binder": "B17", "values": [{"measurement": "Binding Score", "setting": "Soluble CD28-Ig", "value": 1}]}, {"binder": "B18", "values": [{"measurement": "Binding Score", "setting": "Soluble CD28-Ig", "value": 2}]}, {"binder": "B19", "values": [{"measurement": "Binding Score", "setting": "Soluble CD28-Ig", "value": 2}]}, {"binder": "B20", "values": [{"measurement": "Binding Score", "setting": "Soluble CD28-Ig", "value": 1}]}, {"binder": "B21", "values": [{"measurement": "Binding Score", "setting": "Soluble CD28-Ig", "value": 1}]}, {"binder": "B22", "values": [{"measurement": "Binding Score", "setting": "Soluble CD28-Ig", "value": 1}]}, {"binder": "B23", "values": [{"measurement": "Binding Score", "setting": "Soluble CD28-Ig", "value": 2}]}, {"binder": "B24", "values": [{"measurement": "Binding Score", "setting": "Soluble CD28-Ig", "value": 1}]}, {"binder": "B25", "values": [{"measurement": "Binding Score", "setting": "Soluble CD28-Ig", "value": 1}]}, {"binder": "B26", "values": [{"measurement": "Binding Score", "setting": "Soluble CD28-Ig", "value": 2}]}, {"binder": "B27", "values": [{"measurement": "Binding Score", "setting": "Soluble CD28-Ig", "value": 2}]}, {"binder": "B28", "values": [{"measurement": "Binding Score", "setting": "Soluble CD28-Ig", "value": 2}]}, {"binder": "B29", "values": [{"measurement": "Binding Score", "setting": "Soluble CD28-Ig", "value": 1}]}, {"binder": "B30", "values": [{"measurement": "Binding Score", "setting": "Soluble CD28-Ig", "value": 0}]}, {"binder": "B31", "values": [{"measurement": "Binding Score", "setting": "Soluble CD28-Ig", "value": 1}]}, {"binder": "B32", "values": [{"measurement": "Binding Score", "setting": "Soluble CD28-Ig", "value": 1}]}, {"binder": "B33", "values": [{"measurement": "Binding Score", "setting": "Soluble CD28-Ig", "value": 1}]}]}
